This passage reports Kd results from article PMC10450579 (2023).

Sequences and labels used below:
B1: monobody Mb2 (designed binder)
chain: GSVSSVPTKLEVVAATPTSLLISWDAPAVTVVHYVITYGETGGNSPVQEFTVPGSKSTATISGLKPGVDYTITVYAIDFYWGSYSPISINYRT
B2: Aurora A kinase (AurA), residues 122 to 403 (domain or fragment)
chain: ESKKRQWALEDFEIGRPLGKGKFGNVYLAREKQSKFILALKVLFKAQLEKAGVEHQLRREVEIQSHLRHPNILRLYGYFHDATRVYLILEYAPLGTVYRELQKLSKFDEQRTATYITELANALSYCHSKRVIHRDIKPENLLLGSAGELKIADFGWSVHAPSSRRTTLCGTLDYLPPEMIEGRMHDEKVDLWSLGVLCYEFLVGKPPFEANTYQETYKRISRVEFTFPDFVTEGARDLISRLLKHNPSQRPMLREVLEHPWITANSSKPSNCQNKESASKQS

“And” between values parts separate entries of the source, which are not always exact repeats. Equal entries are not always repeated.

Experiment [1] has as its target B2. As to the kind of experiment: ITC. On the technique in general: In ITC the heat of successive injections is recorded.
For experiment [2], the target named is Mb3. Briefly: ITC.
In experiment [3] the target is Mb3. As to the kind of experiment: ITC; AurA preincubated with danusertib.

Consider B1, for which the equilibrium dissociation constant (Kd) in experiment [1] was 0.889 µM and 1.5 µM.
B2: the Kd in experiment [2] amounted to 0.18 µM; in experiment [3], 0.069 µM.

The Kd is the constant that tells how readily two partners part at equilibrium.
